Experiments:
trypsin = biological target: T1, trypsin (Bos taurus, UniProt P00760); experiment: Trypsin degradation assay; assay type: in vitro ADME
T1 sequence (P00760 24-246): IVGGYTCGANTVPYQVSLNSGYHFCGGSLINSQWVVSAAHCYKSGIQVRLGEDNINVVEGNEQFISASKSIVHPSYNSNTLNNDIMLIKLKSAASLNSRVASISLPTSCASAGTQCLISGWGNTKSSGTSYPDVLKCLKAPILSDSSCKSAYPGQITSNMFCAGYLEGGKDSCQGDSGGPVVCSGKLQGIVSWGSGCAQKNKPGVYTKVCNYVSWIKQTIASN

[1] = cited from earlier work

For “SFTI-Triazolyl-(GQAP)49-GQEP-Cys(B29Nε-Acetyl desB30 Human Insulin) (bicyclic or more) [insulin-SFTI 9]”, the “degradation half-life compared to HI + free Prg-SFTI 7” value (trypsin; enzyme/substrate ratio 1:2) was 3 times and the “degradation half-life compared to HI + free Prg-SFTI 7” value (trypsin; enzyme/substrate ratio 1:4) was “twice as long”.
For insulin, the “pKa of the lysine side-chain amine” value [1] is given as ~10 and the “pKa of the two N-terminal amines (A1 and B1)” value [1] is given as ~7.

Source: PMC7424725 (ACS Omega, 2020)
